According to the supplement of paper PMC5998384:

Assays:
[1] = system: HeLa Kyoto; assay: solubility in G1/S (NP-40 vs SDS abundance) (log2 ratio); higher = more soluble; conditions: cell cycle stage: G1/S
[2] = system: HeLa Kyoto; assay: melting temperature (median over replicates), in situ; higher = more thermally stable
[3] = system: HeLa Kyoto; assay: solubility change mitosis vs G1/S (difference of NP-40 vs SDS log2 ratios) (log2 ratio difference); higher = more soluble in mitosis
[4] = system: HeLa Kyoto; assay: thermal stability score vs G1/S (z-score of summed log2 fold changes over temperatures); higher = more thermally stable than in G1/S
[5] = cell cycle stage: early G1 (4.5 h after nocodazole release)
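Throughout, for melting temperature (median over replicates), in situ: HeLa Kyoto cells synchronized by double thymidine or nocodazole block, proteins quantified by TMT10plex mass spectrometry, three independent biological replicates.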
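Throughout, for solubility change mitosis vs G1/S (difference of NP-40 vs SDS log2 ratios): synchronized HeLa Kyoto cells (double thymidine block for G1/S, nocodazole release for mitosis), protein amounts in NP-40 versus SDS lysates quantified by mass spectrometry, three biological replicates.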
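Throughout, for solubility in G1/S (NP-40 vs SDS abundance): HeLa Kyoto cells arrested at G1/S by double thymidine block, proteins quantified by TMT10plex mass spectrometry in mild NP-40 versus SDS extracts, three biological replicates.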
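Throughout, for thermal stability score vs G1/S (z-score of summed log2 fold changes over temperatures): synchronized HeLa Kyoto cells, proteins quantified by TMT10plex mass spectrometry, three biological replicates, mitosis taken 0.5 h after nocodazole release, G1/S directly after double thymidine block.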

Substance: MAPGCKTELRSVTNGQSNQPSNEGDAIKVFVRIRPPAERSGSADGEQNLCLSVLSSTSLRLHSNPEPKTFTFDHVADVDTTQESVFATVAKSIVESCMSGYNGTIFAYGQTGSGKTFTMMGPSESDNFSHNLRGVIPRSFEYLFSLIDREKEKAGAGKSFLCKCSFIEIYNEQIYDLLDSASAGLYLREHIKKGVFVVGAVEQVVTSAAEAYQVLSGGWRNRRVASTSMNRESSRSHAVFTITIESMEKSNEIVNIRTSLLNLVDLAGSERQKDTHAEGMRLKEAGNINRSLSCLGQVITALVDVGNGKQRHVCYRDSKLTFLLRDSLGGNAKTAIIANVHPGSRCFGETLSTLNFAQRAKLIKNKAVVNEDTQGNVSQLQAEVKRLKEQLAELASGQTPPESFLTRDKKKTNYMEYFQEAMLFFKKSEQEKKSLIEKVTQLEDLTLKKEKFIQSNKMIVKFREDQIIRLEKLHKESRGGFLPEEQDRLLSELRNEIQTLREQIEHHPRVAKYAMENHSLREENRRLRLLEPVKRAQEMDAQTIAKLEKAFSEISGMEKSDKNQQGFSPKAQKEPCLFANTEKLKAQLLQIQTELNNSKQEYEEFKELTRKRQLELESELQSLQKANLNLENLLEATKACKRQEVSQLNKIHAETLKIITTPTKAYQLHSRPVPKLSPEMGSFGSLYTQNSSILDNDILNEPVPPEMNEQAFEAISEELRTVQEQMSALQAKLDEEEHKNLKLQQHVDKLEHHSTQMQELFSSERIDWTKQQEELLSQLNVLEKQLQETQTKNDFLKSEVHDLRVVLHSADKELSSVKLEYSSFKTNQEKEFNKLSERHMHVQLQLDNLRLENEKLLESKACLQDSYDNLQEIMKFEIDQLSRNLQNFKKENETLKSDLNNLMELLEAEKERNNKLSLQFEEDKENSSKEILKVLEAVRQEKQKETAKCEQQMAKVQKLEESLLATEKVISSLEKSRDSDKKVVADLMNQIQELRTSVCEKTETIDTLKQELKDINCKYNSALVDREESRVLIKKQEVDILDLKETLRLRILSEDIERDMLCEDLAHATEQLNMLTEASKKHSGLLQSAQEELTKKEALIQELQHKLNQKKEEVEQKKNEYNFKMRQLEHVMDSAAEDPQSPKTPPHFQTHLAKLLETQEQEIEDGRASKTSLEHLVTKLNEDREVKNAEILRMKEQLREMENLRLESQQLIEKNWLLQGQLDDIKRQKENSDQNHPDNQQLKNEQEESIKERLAKSKIVEEMLKMKADLEEVQSALYNKEMECLRMTDEVERTQTLESKAFQEKEQLRSKLEEMYEERERTSQEMEMLRKQVECLAEENGKLVGHQNLHQKIQYVVRLKKENVRLAEETEKLRAENVFLKEKKRSES [KIF15]
- solubility in G1/S (log2) [1]: 0.087
- melting temperature ([2]; cell cycle stage: G1/S): 48.4 °C
- melting temperature ([2]; cell cycle stage: mitosis): 49.4 °C
- solubility change mitosis (log2) [3]: -0.0831
- thermal stability score [4, 5]: 0.584
- thermal stability score ([4]; cell cycle stage: mitosis): 1.61

Substance: MASPSRRLQTKPVITCFKSVLLIYTFIFWITGVILLAVGIWGKVSLENYFSLLNEKATNVPFVLIATGTVIILLGTFGCFATCRASAWMLKLYAMFLTLVFLVELVAAIVGFVFRHEIKNSFKNNYEKALKQYNSTGDYRSHAVDKIQNTLHCCGVTDYRDWTDTNYYSEKGFPKSCCKLEDCTPQRDADKVNNEGCFIKVMTIIESEMGVVAGISFGVACFQLIGIFLAYCLSRAITNNQYEIV [TSPAN6]
- solubility in G1/S (log2) [1]: -0.201
- melting temperature ([2]; cell cycle stage: G1/S): 58.9 °C
- melting temperature ([2]; cell cycle stage: mitosis): 55.8 °C
- solubility change mitosis (log2) [3]: 2.55e-05
- thermal stability score [4, 5]: 0.413
- thermal stability score ([4]; cell cycle stage: mitosis): -2.28

Substance: MAAPKGSLWVRTQLGLPPLLLLTMALAGGSGTASAEAFDSVLGDTASCHRACQLTYPLHTYPKEEELYACQRGCRLFSICQFVDDGIDLNRTKLECESACTEAYSQSDEQYACHLGCQNQLPFAELRQEQLMSLMPKMHLLFPLTLVRSFWSDMMDSAQSFITSSWTFYLQADDGKIVIFQSKPEIQYAPHLEQEPTNLRESSLSKMSYLQMRNSQAHRNFLEDGESDGFLRCLSLNSGWILTTTLVLSVMVLLWICCATVATAVEQYVPSEKLSIYGDLEFMNEQKLNRYPASSLVVVRSKTEDHEEAGPLPTKVNLAHSEI [TMEM59]
- solubility in G1/S (log2) [1]: 0.0662
- melting temperature ([2]; cell cycle stage: G1/S): 54.8 °C
- melting temperature ([2]; cell cycle stage: mitosis): 53.1 °C
- solubility change mitosis (log2) [3]: 0.0194
- thermal stability score [4, 5]: 0.0515
- thermal stability score ([4]; cell cycle stage: mitosis): -0.215

Substance: MSISSDEVNFLVYRYLQESGFSHSAFTFGIESHISQSNINGALVPPAALISIIQKGLQYVEAEVSINEDGTLFDGRPIESLSLIDAVMPDVVQTRQQAYRDKLAQQQAAAAAAAAAAASQQGSAKNGENTANGEENGAHTIANNHTDMMEVDGDVEIPPNKAVVLRGHESEVFICAWNPVSDLLASGSGDSTARIWNLSENSTSGSTQLVLRHCIREGGQDVPSNKDVTSLDWNSEGTLLATGSYDGFARIWTKDGNLASTLGQHKGPIFALKWNKKGNFILSAGVDKTTIIWDAHTGEAKQQFPFHSAPALDVDWQSNNTFASCSTDMCIHVCKLGQDRPIKTFQGHTNEVNAIKWDPTGNLLASCSDDMTLKIWSMKQDNCVHDLQAHNKEIYTIKWSPTGPGTNNPNANLMLASASFDSTVRLWDVDRGICIHTLTKHQEPVYSVAFSPDGRYLASGSFDKCVHIWNTQTGALVHSYRGTGGIFEVCWNAAGDKVGASASDGSVCVLDLRK [TBL1XR1]
- solubility in G1/S (log2) [1]: -0.0567
- melting temperature ([2]; cell cycle stage: G1/S): 52.2 °C
- melting temperature ([2]; cell cycle stage: mitosis): 53.6 °C
- solubility change mitosis (log2) [3]: -0.127
- thermal stability score [4, 5]: -0.718
- thermal stability score ([4]; cell cycle stage: mitosis): 1.29

Substance: MAALTLRGVRELLKRVDLATVPRRHRYKKKWAATEPKFPAVRLALQNFDMTYSVQFGDLWPSIRVSLLSEQKYGALVNNFAAWDHVSAKLEQLSAKDFVNEAISHWELQSEGGQSAAPSPASWACSPNLRCFTFDRGDISRFPPARPGSLGVMEYYLMDAASLLPVLALGLQPGDIVLDLCAAPGGKTLALLQTGCCRNLAANDLSPSRIARLQKILHSYVPEEIRDGNQVRVTSWDGRKWGELEGDTYDRVLVDVPCTTDRHSLHEEENNIFKRSRKKERQILPVLQVQLLAAGLLATKPGGHVVYSTCSLSHLQNEYVVQGAIELLANQYSIQVQVEDLTHFRRVFMDTFCFFSSCQVGELVIPNLMANFGPMYFCKMRRLT [NSUN4]
- solubility in G1/S (log2) [1]: -0.195
- melting temperature ([2]; cell cycle stage: G1/S): 51.7 °C
- melting temperature ([2]; cell cycle stage: mitosis): 51.9 °C
- solubility change mitosis (log2) [3]: 0.115
- thermal stability score [4, 5]: 0.266
- thermal stability score ([4]; cell cycle stage: mitosis): 0.044

Substance: MRGFGPGLTARRLLPLRLPPRPPGPRLASGQAAGALERAMDELLRRAVPPTPAYELREKTPAPAEGQCADFVSFYGGLAETAQRAELLGRLARGFGVDHGQVAEQSAGVLHLRQQQREAAVLLQAEDRLRYALVPRYRGLFHHISKLDGGVRFLVQLRADLLEAQALKLVEGPDVREMNGVLKGMLSEWFSSGFLNLERVTWHSPCEVLQKISEAEAVHPVKNWMDMKRRVGPYRRCYFFSHCSTPGEPLVVLHVALTGDISSNIQAIVKEHPPSETEEKNKITAAIFYSISLTQQGLQGVELGTFLIKRVVKELQREFPHLGVFSSLSPIPGFTKWLLGLLNSQTKEHGRNELFTDSECKEISEITGGPINETLKLLLSSSEWVQSEKLVRALQTPLMRLCAWYLYGEKHRGYALNPVANFHLQNGAVLWRINWMADVSLRGITGSCGLMANYRYFLEETGPNSTSYLGSKIIKASEQVLSLVAQFQKNSKL [MLYCD]
- solubility in G1/S (log2) [1]: 0.0216
- melting temperature ([2]; cell cycle stage: G1/S): 52.7 °C
- melting temperature ([2]; cell cycle stage: mitosis): 54.3 °C
- solubility change mitosis (log2) [3]: -0.194
- thermal stability score [4, 5]: -0.712
- thermal stability score ([4]; cell cycle stage: mitosis): -1.19

Substance: MALHVPKAPGFAQMLKEGAKHFSGLEEAVYRNIQACKELAQTTRTAYGPNGMNKMVINHLEKLFVTNDAATILRELEVQHPAAKMIVMASHMQEQEVGDGTNFVLVFAGALLELAEELLRIGLSVSEVIEGYEIACRKAHEILPNLVCCSAKNLRDIDEVSSLLRTSIMSKQYGNEVFLAKLIAQACVSIFPDSGHFNVDNIRVCKILGSGISSSSVLHGMVFKKETEGDVTSVKDAKIAVYSCPFDGMITETKGTVLIKTAEELMNFSKGEENLMDAQVKAIADTGANVVVTGGKVADMALHYANKYNIMLVRLNSKWDLRRLCKTVGATALPRLTPPVLEEMGHCDSVYLSEVGDTQVVVFKHEKEDGAISTIVLRGSTDNLMDDIERAVDDGVNTFKVLTRDKRLVPGGGATEIELAKQITSYGETCPGLEQYAIKKFAEAFEAIPRALAENSGVKANEVISKLYAVHQEGNKNVGLDIEAEVPAVKDMLEAGILDTYLGKYWAIKLATNAAVTVLRVDQIIMAKPAGGPKPPSGKKDWDDDQND [CCT8]
- solubility in G1/S (log2) [1]: 0.0969
- melting temperature ([2]; cell cycle stage: G1/S): 54.2 °C
- melting temperature ([2]; cell cycle stage: mitosis): 53.9 °C
- solubility change mitosis (log2) [3]: -0.0769
- thermal stability score [4, 5]: -0.228
- thermal stability score ([4]; cell cycle stage: mitosis): -1.4

Substance: ABCC2
- solubility in G1/S (log2) [1]: -0.128
- melting temperature ([2]; cell cycle stage: G1/S): 51.6 °C
- melting temperature ([2]; cell cycle stage: mitosis): 51.6 °C
- solubility change mitosis (log2) [3]: -0.0305
- thermal stability score [4, 5]: 0.294
- thermal stability score ([4]; cell cycle stage: mitosis): -0.626

Substance: MTHWFHRNPLKATAPVSFNYYGVVTGPSASKICNDLRSSRARLLELFTDLSCNPEMMKNAADSYFSLLQGFINSLDESTQESKLRYIQNFKWTDTLQGQVPSAQQDAVFELISMGFNVALWYTKYASRLAGKENITEDEAKEVHRSLKIAAGIFKHLKESHLPKLITPAEKGRDLESRLIEAYVIQCQAEAQEVTIARAIELKHAPGLIAALAYETANFYQKADHTLSSLEPAYSAKWRKYLHLKMCFYTAYAYCYHGETLLASDKCGEAIRSLQEAEKLYAKAEALCKEYGETKGPGPTVKPSGHLFFRKLGNLVKNTLEKCQRENGFIYFQKIPTEAPQLELKANYGLVEPIPFEFPPTSVQWTPETLAAFDLTKRPKDDSTKPKPEEEVKPVKEPDIKPQKDTGCYIS [BROX]
- solubility in G1/S (log2) [1]: 0.511
- melting temperature ([2]; cell cycle stage: G1/S): 49.6 °C
- melting temperature ([2]; cell cycle stage: mitosis): 49.8 °C
- solubility change mitosis (log2) [3]: -0.114
- thermal stability score [4, 5]: -0.298
- thermal stability score ([4]; cell cycle stage: mitosis): 0.407

Substance: MDSAGQDINLNSPNKGLLSDSMTDVPVDTGVAARTPAVEGLTEAEEEELRAELTKVEEEIVTLRQVLAAKERHCGELKRRLGLSTLGELKQNLSRSWHDVQVSSAYVKTSEKLGEWNEKVTQSDLYKKTQETLSQAGQKTSAALSTVGSAISRKLGDMRNSATFKSFEDRVGTIKSKVVGDRENGSDNLPSSAGSGDKPLSDPAPF [TPD52L2]
- solubility in G1/S (log2) [1]: 0.127
- melting temperature ([2]; cell cycle stage: G1/S): 53 °C
- melting temperature ([2]; cell cycle stage: mitosis): 52.7 °C
- solubility change mitosis (log2) [3]: 0.6
- thermal stability score [4, 5]: -4.67
- thermal stability score ([4]; cell cycle stage: mitosis): -5.07

Substance: MDDQGCPRCKTTKYRNPSLKLMVNVCGHTLCESCVDLLFVRGAGNCPECGTPLRKSNFRVQLFEDPTVDKEVEIRKKVLKIYNKREEDFPSLREYNDFLEEVEEIVFNLTNNVDLDNTKKKMEIYQKENKDVIQKNKLKLTREQEELEEALEVERQENEQRRLFIQKEEQLQQILKRKNKQAFLDELESSDLPVALLLAQHKDRSTQLEMQLEKPKPVKPVTFSTGIKMGQHISLAPIHKLEEALYEYQPLQIETYGPHVPELEMLGRLGYLNHVRAASPQDLAGGYTSSLACHRALQDAFSGLFWQPS [MNAT1]
- solubility in G1/S (log2) [1]: -0.181
- melting temperature ([2]; cell cycle stage: G1/S): 52.1 °C
- melting temperature ([2]; cell cycle stage: mitosis): 53 °C
- solubility change mitosis (log2) [3]: 0.565
- thermal stability score [4, 5]: -0.397
- thermal stability score ([4]; cell cycle stage: mitosis): -0.426
